One molecule from patent US20180312587A1 (ADURO BIOTECH HOLDINGS EUROPE B V, published 2018) can be followed below.

Holding throughout (experiment): CELISA, CHO-K1 transfectants, domain exchange study
One experiment has as its target T1, human SIRPα variant 1 (human, UniProt P78324 31-504).
T1 construct: full length ORF on transfected CHO-K1 or HEK293 cells; entry includes the signal peptide; also called hSIRPαV1; SIRPαV1
An excerpt: (§1) Based on the fold of SIRPα, the extracellular region can be subdivided into three separate domains: the Ig-like (immunoglobulin-like) V-type (IgV), Ig-like C1-type (IgC1), and Ig-like C2-type (IgC2) domain. The IgV domain is also known as the ligand-binding N-terminal domain of SIRPα (which binds to CD47). The human SIRPαV1/β1 mutants were designed on the basis of the full length hSIRPαV1 sequence (SEQ ID NO: 33) and each individual Ig-like domain was substituted for the equivalent domain of human SIRPβ1 (SEQ ID NO: 37). The cDNAs encoding the constructs, hSIRPα-VβC1αC2α (SEQ ID NO: 55), hSIRPα-VαC1βC2α (SEQ ID NO: 57), and hSIRPα-VaC1αC2β (SEQ ID NO: 59) were synthesized (GeneArt) and subcloned into the pCI-neo vector. Binding of hSIRPα.50A to the exchange mutants was tested using CELISA. To this end, CHO-K1 cells were transiently transfected, using Lipofectamine 2000, with the pCI-neo vectors encoding hSIRPαV1, hSIRPαV2, hSIRPβ1, hSIRPα-VβC1αC2α, hSIRPα-VαC1βC2α, and hSIRPα-VαC1αC2β, respectively. The transfected cells were cultured at 37° C., 5% CO₂ and 95% humidity in medium (DMEM-F12 (Gibco) with 5% New Born Calf serum (Biowest) and Pen/Strep (Gibco)) until confluent. Subsequently, cells were trypsinized and seeded in 96-well flat-bottom tissue culture plates and cultured at 37° C., 5% CO₂ and 95% humidity in culture medium until confluent. Then, culture medium was removed and cells were incubated for 1 hour at 37° C., 5% CO₂ and 95% humidity with hSIRPα.50A and anti-hSIRPα clone SE5A5 antibodies. Next, cells were washed with PBS-T and incubated for 1 hour at 37° C., 5% CO₂ and 95% humidity with goat-anti-mouse IgG-HRP conjugate (Southern Biotech). After that, cells were washed three times with PBS-T and anti-hSIRPα immunoreactivity was visualized with TMB Stabilized Chromogen (Invitrogen). Reactions were stopped with 0.5 M H₂SO₄ and absorbances were read at 450 and 610 nm.

For another experiment, the target named is T2, human SIRPα variant 2 (human, UniProt P78324 31-504).
T2 construct: full length ORF on transfected CHO-K1 cells; also called hSIRPαV2; SIRPαV2
Text: as §1

The next experiment addresses T3, hSIRPα-VαC1βC2α (human, UniProt P78324 31-504).
T3 construct: domain exchange mutant
T3 chain: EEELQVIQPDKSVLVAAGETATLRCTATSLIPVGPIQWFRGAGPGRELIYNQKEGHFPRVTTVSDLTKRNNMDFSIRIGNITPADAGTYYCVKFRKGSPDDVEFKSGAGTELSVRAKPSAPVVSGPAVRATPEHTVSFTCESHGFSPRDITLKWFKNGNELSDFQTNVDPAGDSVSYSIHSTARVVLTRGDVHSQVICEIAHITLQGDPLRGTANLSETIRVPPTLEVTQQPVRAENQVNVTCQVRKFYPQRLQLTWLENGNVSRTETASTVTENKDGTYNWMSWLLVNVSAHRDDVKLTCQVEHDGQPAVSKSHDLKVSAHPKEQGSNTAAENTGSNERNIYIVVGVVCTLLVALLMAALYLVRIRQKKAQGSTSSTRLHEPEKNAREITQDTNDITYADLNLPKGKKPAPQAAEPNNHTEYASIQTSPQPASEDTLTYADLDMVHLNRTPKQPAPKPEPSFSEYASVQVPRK
Text: as §1

Another experiment concerns the target T4, hSIRPα-VαC1αC2β (human, UniProt P78324 31-504).
T4 construct: domain exchange mutant
T4 chain: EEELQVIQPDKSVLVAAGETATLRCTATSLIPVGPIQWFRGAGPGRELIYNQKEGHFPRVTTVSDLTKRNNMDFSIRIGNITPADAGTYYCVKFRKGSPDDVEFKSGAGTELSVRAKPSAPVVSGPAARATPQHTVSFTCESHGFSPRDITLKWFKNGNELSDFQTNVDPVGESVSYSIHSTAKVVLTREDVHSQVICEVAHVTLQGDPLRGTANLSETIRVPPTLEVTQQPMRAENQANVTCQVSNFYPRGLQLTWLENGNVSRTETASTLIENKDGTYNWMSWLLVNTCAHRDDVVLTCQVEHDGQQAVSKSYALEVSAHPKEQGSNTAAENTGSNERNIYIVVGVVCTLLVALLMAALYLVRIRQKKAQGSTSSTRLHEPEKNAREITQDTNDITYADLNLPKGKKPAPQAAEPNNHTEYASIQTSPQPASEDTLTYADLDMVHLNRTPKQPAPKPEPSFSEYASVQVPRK
Text: as §1

B1: hSIRPα.50A (antibody, V domains shown)
VH: QVQLQQSGPELVKPGASVRISCKASGFTFTNYYIHWVKQRPGQGLEWIGWIYPGNVNTKYNEKFKAKATLTADKSSTTAYMQLSSLASEDSAVYFCARPTIIATDFDVWGAGTTVTVSS
VL: DIVMTQSHKFMSTSVGDRVNITCKASQGVGTAVGWYQQKPGQSPRLLIYWASTRHTGVPDRFTGSGSGTDFSLAISNVQSEDLADYFCQQYSTYPFTFGGGTNLEIK
notes: light chain constant domain not tied; also called mouse hSIRPα.50A; hSIRPα.50A.mIgG1
B1: the 50% effective concentration (EC50) (in general, the concentration that produces a half-maximal response) with human SIRPα variant 1 was 0.321 nM; with human SIRPα variant 2, 0.215 nM; with hSIRPα-VαC1βC2α, 0.345 nM; with hSIRPα-VαC1αC2β, 0.408 nM.
